Laboratory results from the supplement of paper PMC6379048.

How the values were obtained:
PABPC4 = PABPC4 (UniProt Q13310); test: EC50 of free RNA motif oligo competing protein binding to immobilised probe
Summary of the method: (§1)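 Free RNA oligos (0 nM to 30 μM) were pre-incubated with HEK293-FT lysate (2.5 mg protein/well) for 1 h at 4°C, followed by 30 min at 4°C with the same 5′-amino-C6 oligos coupled to NHS-Sepharose beads. Bound proteins were quantified by label-free LC-MS/MS and normalised to the control. EC50 was derived from a four-parameter log-logistic fit, and Kd was obtained by multiplying EC50 by a protein-dependent depletion factor.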

RPS20 = RPS20 (UniProt P60866); test: as above
Summary of the method: as §1

RBM4 = molecular target: T1, RBM4 (UniProt Q9BWF3); test: as above
T1 sequence: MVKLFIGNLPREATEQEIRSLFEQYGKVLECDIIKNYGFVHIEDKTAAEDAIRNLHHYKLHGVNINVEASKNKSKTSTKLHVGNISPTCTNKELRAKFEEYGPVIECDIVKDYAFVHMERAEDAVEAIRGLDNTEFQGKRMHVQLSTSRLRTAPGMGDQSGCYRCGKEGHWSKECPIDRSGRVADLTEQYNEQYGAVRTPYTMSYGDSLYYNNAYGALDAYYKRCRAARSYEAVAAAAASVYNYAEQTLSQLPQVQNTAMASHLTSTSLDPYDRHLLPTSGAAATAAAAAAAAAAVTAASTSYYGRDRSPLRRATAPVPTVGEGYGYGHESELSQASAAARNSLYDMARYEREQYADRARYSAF
Summary of the method: as §1

WDR33 = molecular target: T2, WDR33 (UniProt Q9C0J8); test: Kd (EC50 corrected by depletion factor)
T2 sequence: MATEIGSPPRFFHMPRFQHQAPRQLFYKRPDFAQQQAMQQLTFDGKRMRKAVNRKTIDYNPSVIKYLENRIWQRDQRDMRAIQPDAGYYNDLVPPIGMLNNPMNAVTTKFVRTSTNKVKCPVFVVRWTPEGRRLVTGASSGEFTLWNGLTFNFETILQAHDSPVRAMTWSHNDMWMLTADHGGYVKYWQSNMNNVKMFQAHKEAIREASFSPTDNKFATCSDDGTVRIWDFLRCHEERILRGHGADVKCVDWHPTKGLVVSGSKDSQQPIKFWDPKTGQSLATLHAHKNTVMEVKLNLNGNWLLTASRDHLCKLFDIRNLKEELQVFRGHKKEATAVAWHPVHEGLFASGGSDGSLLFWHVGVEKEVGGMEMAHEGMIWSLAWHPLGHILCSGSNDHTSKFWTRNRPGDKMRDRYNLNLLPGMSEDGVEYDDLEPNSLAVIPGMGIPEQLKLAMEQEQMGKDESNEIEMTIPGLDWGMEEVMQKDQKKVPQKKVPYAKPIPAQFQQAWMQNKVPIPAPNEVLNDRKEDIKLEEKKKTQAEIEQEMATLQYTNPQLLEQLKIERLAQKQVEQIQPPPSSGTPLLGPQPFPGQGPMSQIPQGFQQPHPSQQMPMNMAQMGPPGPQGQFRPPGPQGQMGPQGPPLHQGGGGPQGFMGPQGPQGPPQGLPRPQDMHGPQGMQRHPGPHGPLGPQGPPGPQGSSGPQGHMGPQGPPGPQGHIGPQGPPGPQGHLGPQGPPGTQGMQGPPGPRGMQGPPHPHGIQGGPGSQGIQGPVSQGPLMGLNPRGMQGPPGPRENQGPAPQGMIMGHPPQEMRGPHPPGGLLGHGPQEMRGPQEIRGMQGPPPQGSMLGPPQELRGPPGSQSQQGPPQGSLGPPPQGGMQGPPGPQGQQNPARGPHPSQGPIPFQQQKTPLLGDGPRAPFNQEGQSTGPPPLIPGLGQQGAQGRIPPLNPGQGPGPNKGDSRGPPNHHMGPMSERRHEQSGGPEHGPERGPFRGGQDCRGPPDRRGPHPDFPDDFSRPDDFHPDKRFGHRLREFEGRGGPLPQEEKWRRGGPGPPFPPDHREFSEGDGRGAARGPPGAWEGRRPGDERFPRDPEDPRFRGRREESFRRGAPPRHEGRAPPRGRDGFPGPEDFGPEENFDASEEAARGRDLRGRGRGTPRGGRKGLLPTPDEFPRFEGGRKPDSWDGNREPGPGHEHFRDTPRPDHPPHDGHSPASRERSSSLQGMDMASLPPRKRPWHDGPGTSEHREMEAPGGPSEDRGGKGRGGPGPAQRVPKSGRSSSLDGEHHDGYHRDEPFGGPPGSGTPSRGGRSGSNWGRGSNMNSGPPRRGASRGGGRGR
Summary of the method: as §1

NCL = NCL (UniProt P19338); test: EC50 of free RNA motif oligo competing protein binding to immobilised probe
Sequence of NCL (P19338 whole entry): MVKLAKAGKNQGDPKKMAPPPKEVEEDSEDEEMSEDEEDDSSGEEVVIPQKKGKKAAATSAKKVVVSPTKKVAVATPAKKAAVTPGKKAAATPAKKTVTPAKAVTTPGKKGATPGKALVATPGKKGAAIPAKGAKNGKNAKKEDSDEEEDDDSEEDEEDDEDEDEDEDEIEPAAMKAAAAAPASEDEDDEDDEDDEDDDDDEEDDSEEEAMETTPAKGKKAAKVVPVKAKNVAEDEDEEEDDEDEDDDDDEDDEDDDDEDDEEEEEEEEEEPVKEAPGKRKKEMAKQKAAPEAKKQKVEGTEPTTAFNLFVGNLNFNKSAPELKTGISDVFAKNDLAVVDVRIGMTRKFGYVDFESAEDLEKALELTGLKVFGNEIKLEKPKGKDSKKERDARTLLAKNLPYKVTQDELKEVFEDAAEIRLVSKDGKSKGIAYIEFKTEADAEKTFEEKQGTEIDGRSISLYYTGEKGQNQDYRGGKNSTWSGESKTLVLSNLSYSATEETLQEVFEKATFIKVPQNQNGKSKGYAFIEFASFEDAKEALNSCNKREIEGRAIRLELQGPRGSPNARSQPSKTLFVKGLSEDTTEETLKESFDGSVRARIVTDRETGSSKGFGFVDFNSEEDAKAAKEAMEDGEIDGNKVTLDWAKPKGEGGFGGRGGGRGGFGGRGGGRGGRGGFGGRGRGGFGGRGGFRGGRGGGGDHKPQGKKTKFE
Summary of the method: as §1

Sequence of PABPC4 (Q13310 whole entry): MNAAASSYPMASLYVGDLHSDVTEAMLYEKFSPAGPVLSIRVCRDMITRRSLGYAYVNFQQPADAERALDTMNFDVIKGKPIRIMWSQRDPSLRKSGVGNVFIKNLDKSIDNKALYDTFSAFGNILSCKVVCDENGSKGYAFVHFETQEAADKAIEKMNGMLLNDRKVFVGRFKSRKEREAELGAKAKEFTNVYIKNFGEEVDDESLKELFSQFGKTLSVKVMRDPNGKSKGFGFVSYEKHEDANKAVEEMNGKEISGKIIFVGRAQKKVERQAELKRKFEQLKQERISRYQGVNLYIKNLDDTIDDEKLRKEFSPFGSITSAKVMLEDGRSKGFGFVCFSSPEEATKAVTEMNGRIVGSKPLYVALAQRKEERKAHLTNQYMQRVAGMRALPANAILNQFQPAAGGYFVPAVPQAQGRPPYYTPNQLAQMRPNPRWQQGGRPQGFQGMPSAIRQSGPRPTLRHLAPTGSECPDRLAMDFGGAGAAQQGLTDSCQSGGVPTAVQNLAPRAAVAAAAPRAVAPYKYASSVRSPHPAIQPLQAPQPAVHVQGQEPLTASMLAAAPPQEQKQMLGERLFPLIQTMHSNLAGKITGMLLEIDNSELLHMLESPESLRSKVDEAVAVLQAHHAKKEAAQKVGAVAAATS

| Sequence | EC50 (PABPC4) [nM] | EC50 (RPS20) [nM] | EC50 (RBM4) [nM] | Kd (WDR33) [nM] | EC50 (NCL) [nM] |
| --- | --- | --- | --- | --- | --- |
| AAUAAA | 4280 | 3800 | 4160 | 5.98 | – |
| CUGUCCU | – | 171 | 371 | – | 321 |
| UAUUUAU | 13600 | – | – | 338 | 2170 |
